Data on nine molecules can be found in patent US20230035859A1, “COMPOSITIONS AND METHODS FOR EPITOPE SCANNING” (priority 2019, published 2023).

One data set deals with HLA-B*57:01 (Homo sapiens, UniProt P01889, D201E/D98Y/E176V/E187L/E204Q/E69M/E70A/G107R/I90N/K202T/L105A/L119I/N104I/N87E/Q89R/Q94S/R106L/R155S/R180L/R86G/S101N/S121V/S35A/S48A/T118I/V36M/Y140S/Y91M). Kind of data set: Random 9-mer EpiScan screen in HLA-B57-expressing EpiScan cells with and without abacavir. It counts as cell-based. To be noted: 48 h abacavir treatment at 6 μM.

For data set [1] the following is noted: cited from earlier work.
In data set [2] the target is T1, HLA-A*02:01 (Homo sapiens, UniProt P04439, D140Y/D185E/D98H/E176V/E277Q/G131W/G231S/I119V/I121R/I166T/I218V/L300P/L318F/N151K/N90K/P208A/P217A/Q86G/Q94H/R138H/R169H/T345S). Kind of data set: QuickSwitch Quant HLA-A*02:01 Tetramer control peptide exchange.
Data set [3] has as its target T1, HLA-A*02:01. It counts as cell-based.
A further data set concerns CD8+ T cells. The format is cell-based, human. Details: key: y = yes; TBD = to be determined.

Consider `Nc1nc(NC2CC2)c2ncn([C@H]3C=C[C@@H](CO)C3)c2n1` [Abacavir], for which, at HLA-B*57:01, the “binding peptides with C-terminal Residue C, Abacavir treated” value is on record as 3; the “binding peptides with C-terminal Residue F, Abacavir treated” value was 66; the “binding peptides with C-terminal Residue G, Abacavir treated” value worked out at 4; the “binding peptides with C-terminal Residue I, Abacavir treated” value worked out at 59. Also, at HLA-B*57:01, the “binding peptides with C-terminal Residue L, Abacavir treated” value is 10; the “binding peptides with C-terminal Residue M, Abacavir treated” value is given as 5; the “binding peptides with C-terminal Residue N, Abacavir treated” value is 1; the “binding peptides with C-terminal Residue R, Abacavir treated” value was found to be 3. At HLA-B*57:01, the “binding peptides with C-terminal Residue V, Abacavir treated” value was determined as 28; the “binding peptides with C-terminal Residue W, Abacavir treated” value is reported as 502; the “binding peptides with C-terminal Residue Y, Abacavir treated” value is on record as 22. Moreover, the “hypersensitivity, share of patients” value in data set [1] was “around 5%”.

Take “AMDEFIERYKL [SARS-CoV-2 Orf1ab 6669-6679; used for tetramer staining]”: the “% Peptide Exchange” value with HLA-A*02:01 [2] came out at 96.89%. The “EpiScan MFI” value with HLA-A*02:01 [3] stood at 2.352.

For “SLPGVFCGV [SARS-CoV-2 HLA-A*02:01 peptide used for tetramer staining]”, the “% Peptide Exchange” value with HLA-A*02:01 [2] is 98.00%. Moreover, the “Patient tetramer positivity?” value in the data set on CD8+ T cells is “y”. In the data set with HLA-A*02:01 [3], the “EpiScan MFI” value turned out to be 6.418.

With “TLATHGLAAV [SARS-CoV-2 HLA-A*02:01 peptide used for tetramer staining]”, the “% Peptide Exchange” value with HLA-A*02:01 [2] is 97.98%. For the same molecule, the “EpiScan MFI” value with HLA-A*02:01 [3] was 4.040.

With “VLYQDVNCTEV [SARS-CoV-2 HLA-A*02:01 peptide used for tetramer staining]”, the “% Peptide Exchange” value in the data set with HLA-A*02:01 [2] is listed as 97.92%. Moreover, in the data set with HLA-A*02:01 [3], the “EpiScan MFI” value was 5.598.

“VMAYITGGV [SARS-CoV-2 Orf1ab 597-605; used for tetramer staining]”: the “% Peptide Exchange” value in the data set with HLA-A*02:01 [2] stood at 99.07%. For the same molecule, in the data set with HLA-A*02:01 [3], the “EpiScan MFI” value turned out to be 4.528.

On to “VMAYITGGVV [SARS-CoV-2 HLA-A*02:01 peptide used for tetramer staining]”, for which the “% Peptide Exchange” value with HLA-A*02:01 [2] is given as 99.07%. In addition, the “Patient tetramer positivity?” value with CD8+ T cells is “y”. Moreover, the “EpiScan MFI” value with HLA-A*02:01 [3] was 4.641.

“VMVELVAEL [SARS-CoV-2 HLA-A*02:01 peptide used for tetramer staining]”: the “% Peptide Exchange” value with HLA-A*02:01 [2] was determined as 98.63%. The “Patient tetramer positivity?” value in the data set with CD8+ T cells is “y”. In addition, the “EpiScan MFI” value with HLA-A*02:01 [3] came out at 5.338.

For the molecule “YIDIGNYTV [SARS-CoV-2 HLA-A*02:01 peptide used for tetramer staining]”, in the data set with HLA-A*02:01 [2], the “% Peptide Exchange” value is 97.94%. Further, the “EpiScan MFI” value with HLA-A*02:01 [3] is given as 4.421.
